Experimental data from patent US20130040994A1.

Target: quenched fluorescein gelatin substrate (DQ gelatin, Invitrogen D12054)

Chain of catalytic rat MMP9 (80 kD active MMP9) (enzyme) (P50282 108-708 limits assumed): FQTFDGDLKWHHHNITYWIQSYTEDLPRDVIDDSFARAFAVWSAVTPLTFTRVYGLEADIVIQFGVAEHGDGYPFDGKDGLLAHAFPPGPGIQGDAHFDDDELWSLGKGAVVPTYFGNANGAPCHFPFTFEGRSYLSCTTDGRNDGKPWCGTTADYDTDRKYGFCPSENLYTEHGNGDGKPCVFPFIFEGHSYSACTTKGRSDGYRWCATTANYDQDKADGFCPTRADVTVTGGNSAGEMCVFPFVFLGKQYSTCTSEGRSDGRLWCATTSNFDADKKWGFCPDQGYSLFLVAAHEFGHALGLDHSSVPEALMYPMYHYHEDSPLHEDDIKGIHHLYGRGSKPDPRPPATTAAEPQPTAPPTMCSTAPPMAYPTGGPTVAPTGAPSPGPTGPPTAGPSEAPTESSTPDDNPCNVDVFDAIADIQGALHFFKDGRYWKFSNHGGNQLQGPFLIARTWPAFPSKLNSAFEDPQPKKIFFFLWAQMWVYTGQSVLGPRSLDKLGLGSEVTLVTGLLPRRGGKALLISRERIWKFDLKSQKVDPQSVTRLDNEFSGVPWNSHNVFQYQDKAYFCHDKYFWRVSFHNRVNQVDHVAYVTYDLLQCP

With “catalytic rat MMP9 (80 kD active MMP9) (enzyme)” as the substance, how does the gelatinase activity by in situ zymography, Intensity (RLU × 10^6), Mean read?
Its gelatinase activity by in situ zymography, Intensity (RLU × 10^6), Mean is 1.09e+08 RLU.
